Changes are numbered by the printed parent chain.
Experiments:
Assay in all cases: holdup assay
Parameters in all cases: key: below the threshold = too weak to quantify, mostly under pKd 3.1 to 4
APBA1_2, Q02410 = biological target: T1, APBA1_2, Q02410
T1 sequence (Q02410 742-832, limits assumed, looked up): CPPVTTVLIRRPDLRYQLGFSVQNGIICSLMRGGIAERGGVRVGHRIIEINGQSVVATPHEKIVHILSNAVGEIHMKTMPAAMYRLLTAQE

APBA2_2, Q99767 = biological target: T2, APBA2_2, Q99767
T2 sequence (Q99767 654-744, limits assumed, looked up): T1 sequence (Q02410 742-832, limits assumed, looked up) with R10K, R15K, P59A, H65Q, I66A, A70S, Y84F, A89G

ARHGEF11, O15085 = biological target: T3, ARHGEF11, O15085
T3 sequence (O15085 42-136, limits assumed, looked up): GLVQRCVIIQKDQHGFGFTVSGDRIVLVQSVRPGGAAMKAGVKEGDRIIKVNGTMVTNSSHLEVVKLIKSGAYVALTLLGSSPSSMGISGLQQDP

DLG4_1, P78352 = biological target: DLG4_1, P78352
Chain of DLG4_1, P78352 (P78352 62-152): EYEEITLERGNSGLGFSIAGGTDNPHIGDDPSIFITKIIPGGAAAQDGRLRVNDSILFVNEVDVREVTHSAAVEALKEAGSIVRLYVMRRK

DLG4_2, P78352 = biological target: DLG4_2, P78352
Chain of DLG4_2, P78352 (P78352 155-259): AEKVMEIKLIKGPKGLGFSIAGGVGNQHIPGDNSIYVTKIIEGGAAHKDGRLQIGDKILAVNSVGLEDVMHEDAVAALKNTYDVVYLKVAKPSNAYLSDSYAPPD

GIPC2, Q8TF65 = biological target: GIPC2, Q8TF65
Chain of GIPC2, Q8TF65 (Q8TF65 112-203): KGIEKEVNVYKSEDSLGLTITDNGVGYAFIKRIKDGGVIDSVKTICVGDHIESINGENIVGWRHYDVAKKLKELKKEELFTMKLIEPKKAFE

GRIP1_2, Q9Y3R0 = biological target: T4, GRIP1_2, Q9Y3R0
T4 sequence (Q9Y3R0 145-248, limits assumed, looked up): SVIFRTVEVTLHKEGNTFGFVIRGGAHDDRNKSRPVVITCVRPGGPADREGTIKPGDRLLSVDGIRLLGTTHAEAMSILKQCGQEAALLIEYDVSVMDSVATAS

GRIP2_4, Q9C0E4 = biological target: GRIP2_4, Q9C0E4
Chain of GRIP2_4, Q9C0E4 (Q9C0E4 446-548): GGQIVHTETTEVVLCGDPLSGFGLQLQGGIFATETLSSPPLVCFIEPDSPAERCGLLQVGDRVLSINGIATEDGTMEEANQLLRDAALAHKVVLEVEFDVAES

IL16_4, Q14005 = biological target: IL16_4, Q14005
Chain of IL16_4, Q14005 (Q14005 1229-1329): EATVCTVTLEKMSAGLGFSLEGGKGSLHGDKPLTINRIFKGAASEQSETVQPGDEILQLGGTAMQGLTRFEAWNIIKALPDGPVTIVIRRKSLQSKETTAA

Inadl_2, Q8NI35 = biological target: Inadl_2, Q8NI35
Chain of Inadl_2, Q8NI35 (Q8NI35 238-335): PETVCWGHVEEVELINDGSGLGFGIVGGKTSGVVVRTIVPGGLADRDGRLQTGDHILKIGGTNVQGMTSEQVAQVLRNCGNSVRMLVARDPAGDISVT

Inadl_4, Q8NI35 = biological target: Inadl_4, Q8NI35
Chain of Inadl_4, Q8NI35 (Q8NI35 547-651): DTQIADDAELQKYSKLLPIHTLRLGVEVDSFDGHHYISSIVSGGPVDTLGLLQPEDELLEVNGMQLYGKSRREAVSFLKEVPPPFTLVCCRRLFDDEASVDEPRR

Inadl_8, Q8NI35 = biological target: Inadl_8, Q8NI35
Chain of Inadl_8, Q8NI35 (Q8NI35 1425-1530): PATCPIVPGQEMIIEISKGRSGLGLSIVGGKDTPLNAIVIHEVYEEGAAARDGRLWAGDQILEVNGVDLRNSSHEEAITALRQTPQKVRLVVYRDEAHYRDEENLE

LIN7A, O14910 = biological target: T5, LIN7A, O14910
T5 sequence (O14910 103-200, limits assumed, looked up): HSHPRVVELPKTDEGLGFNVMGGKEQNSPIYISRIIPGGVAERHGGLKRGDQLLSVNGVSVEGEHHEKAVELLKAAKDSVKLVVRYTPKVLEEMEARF

LNX2_2, Q8N448 = biological target: T6, LNX2_2, Q8N448
T6 sequence (Q8N448 334-432, limits assumed, looked up): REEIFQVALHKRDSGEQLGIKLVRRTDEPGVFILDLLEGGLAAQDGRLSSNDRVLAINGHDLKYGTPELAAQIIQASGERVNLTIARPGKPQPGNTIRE

MAGI1_1, Q96QZ7 = biological target: MAGI1_1, Q96QZ7
Chain of MAGI1_1, Q96QZ7 (Q96QZ7 1-106): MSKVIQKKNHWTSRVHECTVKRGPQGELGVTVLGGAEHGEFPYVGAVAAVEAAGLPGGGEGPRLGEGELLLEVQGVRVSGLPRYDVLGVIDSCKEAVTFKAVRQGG

MPP7, Q5T2T1 = biological target: T7, MPP7, Q5T2T1
T7 sequence (Q5T2T1 134-230, limits assumed, looked up): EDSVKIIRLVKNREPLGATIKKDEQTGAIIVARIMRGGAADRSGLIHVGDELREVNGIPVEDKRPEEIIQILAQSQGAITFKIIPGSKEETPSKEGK

NHERF3_3, Q5T2W1 = biological target: T8, NHERF3_3, Q5T2W1
T8 sequence (Q5T2W1 238-333, limits assumed, looked up): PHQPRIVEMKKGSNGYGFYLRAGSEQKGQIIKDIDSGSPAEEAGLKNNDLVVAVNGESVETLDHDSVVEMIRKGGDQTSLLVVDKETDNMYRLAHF

NOS1, P29475 = biological target: NOS1, P29475
Chain of NOS1, P29475 (P29475 9-101): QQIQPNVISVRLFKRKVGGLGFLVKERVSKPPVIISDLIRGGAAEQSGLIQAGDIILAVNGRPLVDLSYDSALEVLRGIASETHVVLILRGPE

PARD3_3, Q8TEW0 = biological target: PARD3_3, Q8TEW0
Chain of PARD3_3, Q8TEW0 (Q8TEW0 582-685): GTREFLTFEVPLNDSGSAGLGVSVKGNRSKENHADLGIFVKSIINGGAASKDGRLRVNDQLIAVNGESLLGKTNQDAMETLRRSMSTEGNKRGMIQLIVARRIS

PDZRN4_1, Q6ZMN7 = biological target: PDZRN4_1, Q6ZMN7
Chain of PDZRN4_1, Q6ZMN7 (Q6ZMN7 213-318): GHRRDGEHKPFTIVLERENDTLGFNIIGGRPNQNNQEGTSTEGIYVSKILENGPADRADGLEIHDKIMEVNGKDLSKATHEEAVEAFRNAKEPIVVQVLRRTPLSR

PICK1, Q9NRD5 = biological target: PICK1, Q9NRD5
Chain of PICK1, Q9NRD5 (Q9NRD5 17-115): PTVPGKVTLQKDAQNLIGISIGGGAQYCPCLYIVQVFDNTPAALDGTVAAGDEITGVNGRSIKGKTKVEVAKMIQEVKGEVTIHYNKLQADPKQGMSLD

PTPN13_1, Q12923 = biological target: T9, PTPN13_1, Q12923
T9 sequence (Q12923 1088-1188, limits assumed, looked up): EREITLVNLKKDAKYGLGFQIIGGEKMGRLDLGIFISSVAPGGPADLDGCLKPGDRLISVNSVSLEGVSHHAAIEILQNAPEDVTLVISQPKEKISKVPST

SNTA1, Q13424 = biological target: T10, SNTA1, Q13424
T10 sequence (Q13424 82-180, limits assumed, looked up): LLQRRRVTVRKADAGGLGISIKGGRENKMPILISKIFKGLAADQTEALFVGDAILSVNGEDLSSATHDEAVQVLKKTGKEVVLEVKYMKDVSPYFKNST

SNTG1, Q9NSN8 = biological target: T11, SNTG1, Q9NSN8
T11 sequence (Q9NSN8 52-150, limits assumed, looked up): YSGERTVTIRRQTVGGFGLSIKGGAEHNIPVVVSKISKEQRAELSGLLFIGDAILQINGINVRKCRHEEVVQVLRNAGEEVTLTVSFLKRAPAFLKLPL

SNX27, Q96L92 = biological target: SNX27, Q96L92
SYNJ2BP, P57105 = biological target: T12, SYNJ2BP, P57105
T12 sequence (P57105 8-110, limits assumed, looked up): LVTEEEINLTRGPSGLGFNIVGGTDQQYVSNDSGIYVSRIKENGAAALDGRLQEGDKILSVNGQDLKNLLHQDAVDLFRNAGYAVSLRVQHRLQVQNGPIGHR

[1] = plain residues with an end cap or a label only (N-terminal biotin on a linker: ttds)
[2] = plain residues with an end cap or a label only (N-terminal biotin on a linker: ado-ado)
[3] = plain residues with an end cap or a label only (N-terminal biotin on a linker: ahx)

B1: PBK, Q96KB5 (peptide)
chain: HIVEALETDV
Question: Which pKd (APBA1_2, Q02410; [1]) does the source give for B1 here?
Answer: 4.27

Question: What about the pKd (APBA2_2, Q99767; [1]) of the same binder?
Answer: below the threshold

Question: And the pKd (ARHGEF11, O15085; [1])?
Answer: 4.31

Question: And the pKd (DLG4_1, P78352; [1])?
Answer: 5.11

Question: And the pKd (DLG4_2, P78352; [1])?
Answer: 5.55

Question: What about the pKd (GIPC2, Q8TF65; [1]) of the same binder?
Answer: 4.55

Question: And the pKd (GRIP1_2, Q9Y3R0; [1])?
Answer: below the threshold

Question: What about the pKd (GRIP2_4, Q9C0E4; [1]) of the same binder?
Answer: below the threshold

Question: And the pKd (IL16_4, Q14005; [1])?
Answer: below the threshold

Question: What about the pKd (Inadl_2, Q8NI35; [1]) of the same binder?
Answer: below the threshold

Question: And the pKd (Inadl_4, Q8NI35; [1])?
Answer: below the threshold

Question: What about the pKd (Inadl_8, Q8NI35; [1]) of the same binder?
Answer: below the threshold

Question: What about the pKd (LIN7A, O14910; [1]) of the same binder?
Answer: below the threshold

Question: And the pKd (LNX2_2, Q8N448; [1])?
Answer: 3.92

Question: And the pKd (MAGI1_1, Q96QZ7; [1])?
Answer: below the threshold

Question: And the pKd (MPP7, Q5T2T1; [1])?
Answer: below the threshold

Question: What about the pKd (NHERF3_3, Q5T2W1; [1]) of the same binder?
Answer: below the threshold

Question: And the pKd (NOS1, P29475; [1])?
Answer: below the threshold

Question: And the pKd (PARD3_3, Q8TEW0; [1])?
Answer: 3.76

Question: And the pKd (PDZRN4_1, Q6ZMN7; [1])?
Answer: below the threshold

Question: What about the pKd (PICK1, Q9NRD5; [1]) of the same binder?
Answer: below the threshold

Question: And the pKd (PTPN13_1, Q12923; [1])?
Answer: below the threshold

Question: What about the pKd (SNTA1, Q13424; [1]) of the same binder?
Answer: 5.28

Question: What about the pKd (SNTG1, Q9NSN8; [1]) of the same binder?
Answer: 5.68

Question: What about the pKd (SNX27, Q96L92; [1]) of the same binder?
Answer: 4.83

Question: And the pKd (SYNJ2BP, P57105; [1])?
Answer: 4.35

B2: HTR2C, P28335 (peptide)
chain: SVVSERISSV
Question: With B2 as the binder, how does the pKd (APBA1_2, Q02410; [2]) read?
Answer: 3.87

Question: And the pKd (APBA2_2, Q99767; [2])?
Answer: below the threshold

Question: What about the pKd (ARHGEF11, O15085; [2]) of the same binder?
Answer: 3.84

Question: And the pKd (DLG4_1, P78352; [2])?
Answer: 3.94

Question: What about the pKd (DLG4_2, P78352; [2]) of the same binder?
Answer: 4.64

Question: What about the pKd (GIPC2, Q8TF65; [2]) of the same binder?
Answer: below the threshold

Question: What about the pKd (GRIP1_2, Q9Y3R0; [2]) of the same binder?
Answer: below the threshold

Question: What about the pKd (GRIP2_4, Q9C0E4; [2]) of the same binder?
Answer: below the threshold

Question: What about the pKd (IL16_4, Q14005; [2]) of the same binder?
Answer: below the threshold

Question: And the pKd (Inadl_2, Q8NI35; [2])?
Answer: below the threshold

Question: And the pKd (Inadl_4, Q8NI35; [2])?
Answer: below the threshold

Question: And the pKd (Inadl_8, Q8NI35; [2])?
Answer: 5.14

Question: And the pKd (LIN7A, O14910; [2])?
Answer: below the threshold

Question: And the pKd (LNX2_2, Q8N448; [2])?
Answer: 3.96

Question: What about the pKd (MAGI1_1, Q96QZ7; [2]) of the same binder?
Answer: below the threshold

Question: What about the pKd (MPP7, Q5T2T1; [2]) of the same binder?
Answer: below the threshold

Question: What about the pKd (NHERF3_3, Q5T2W1; [2]) of the same binder?
Answer: below the threshold

Question: What about the pKd (NOS1, P29475; [2]) of the same binder?
Answer: 3.58

Question: And the pKd (PARD3_3, Q8TEW0; [2])?
Answer: below the threshold

Question: And the pKd (PDZRN4_1, Q6ZMN7; [2])?
Answer: below the threshold

Question: And the pKd (PICK1, Q9NRD5; [2])?
Answer: below the threshold

Question: What about the pKd (PTPN13_1, Q12923; [2]) of the same binder?
Answer: below the threshold

Question: And the pKd (SNTA1, Q13424; [2])?
Answer: 4.59

Question: What about the pKd (SNTG1, Q9NSN8; [2]) of the same binder?
Answer: 4.06

Question: What about the pKd (SNX27, Q96L92; [2]) of the same binder?
Answer: 5.06

Question: What about the pKd (SYNJ2BP, P57105; [2]) of the same binder?
Answer: 4.46

B3: GRIN2B, Q13224 (peptide)
chain: EKLSSIESDV
Question: For B3, which pKd (APBA1_2, Q02410; [3]) is on record?
Answer: below the threshold

Question: And the pKd (APBA2_2, Q99767; [3])?
Answer: below the threshold

Question: What about the pKd (ARHGEF11, O15085; [3]) of the same binder?
Answer: 3.56

Question: What about the pKd (DLG4_1, P78352; [3]) of the same binder?
Answer: 4.37

Question: And the pKd (DLG4_2, P78352; [3])?
Answer: 4.86

Question: What about the pKd (GIPC2, Q8TF65; [3]) of the same binder?
Answer: 4.33

Question: What about the pKd (GRIP1_2, Q9Y3R0; [3]) of the same binder?
Answer: below the threshold

Question: What about the pKd (GRIP2_4, Q9C0E4; [3]) of the same binder?
Answer: below the threshold

Question: What about the pKd (IL16_4, Q14005; [3]) of the same binder?
Answer: below the threshold

Question: What about the pKd (Inadl_2, Q8NI35; [3]) of the same binder?
Answer: below the threshold

Question: What about the pKd (Inadl_4, Q8NI35; [3]) of the same binder?
Answer: below the threshold

Question: And the pKd (Inadl_8, Q8NI35; [3])?
Answer: below the threshold

Question: And the pKd (LIN7A, O14910; [3])?
Answer: below the threshold

Question: And the pKd (LNX2_2, Q8N448; [3])?
Answer: below the threshold

Question: What about the pKd (MAGI1_1, Q96QZ7; [3]) of the same binder?
Answer: below the threshold

Question: And the pKd (MPP7, Q5T2T1; [3])?
Answer: below the threshold

Question: And the pKd (NHERF3_3, Q5T2W1; [3])?
Answer: below the threshold

Question: And the pKd (NOS1, P29475; [3])?
Answer: below the threshold

Question: And the pKd (PARD3_3, Q8TEW0; [3])?
Answer: below the threshold

Question: And the pKd (PDZRN4_1, Q6ZMN7; [3])?
Answer: below the threshold

Question: And the pKd (PICK1, Q9NRD5; [3])?
Answer: below the threshold

Question: What about the pKd (PTPN13_1, Q12923; [3]) of the same binder?
Answer: below the threshold

Question: What about the pKd (SNTA1, Q13424; [3]) of the same binder?
Answer: 4.39

Question: What about the pKd (SNTG1, Q9NSN8; [3]) of the same binder?
Answer: 4.8

Question: And the pKd (SNX27, Q96L92; [3])?
Answer: 3.87

Question: And the pKd (SYNJ2BP, P57105; [3])?
Answer: 4.4

Source: article PMC9482650, “Quantitative fragmentomics allow affinity mapping of interactomes” (Nature Communications, 2022)
